Reference: paper PMC2586972 (Structure (London, England : 1993), 2008)

T1: N-terminally truncated Gα13(Q226L), GDP-bound (mouse, UniProt P27601 41-377, Q226L)
T1 sequence (looked up): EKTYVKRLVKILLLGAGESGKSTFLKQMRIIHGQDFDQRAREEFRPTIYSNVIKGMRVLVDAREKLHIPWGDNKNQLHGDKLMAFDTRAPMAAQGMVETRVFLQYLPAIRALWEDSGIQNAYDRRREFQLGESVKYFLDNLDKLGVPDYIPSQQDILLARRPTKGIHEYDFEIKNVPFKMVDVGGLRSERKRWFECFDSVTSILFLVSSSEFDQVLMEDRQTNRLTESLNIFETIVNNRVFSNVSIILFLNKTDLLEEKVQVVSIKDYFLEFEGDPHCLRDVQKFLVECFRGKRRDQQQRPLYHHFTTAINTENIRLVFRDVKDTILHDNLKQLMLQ

T2: Gα13 (Mus musculus, UniProt P27601)
T2 chain: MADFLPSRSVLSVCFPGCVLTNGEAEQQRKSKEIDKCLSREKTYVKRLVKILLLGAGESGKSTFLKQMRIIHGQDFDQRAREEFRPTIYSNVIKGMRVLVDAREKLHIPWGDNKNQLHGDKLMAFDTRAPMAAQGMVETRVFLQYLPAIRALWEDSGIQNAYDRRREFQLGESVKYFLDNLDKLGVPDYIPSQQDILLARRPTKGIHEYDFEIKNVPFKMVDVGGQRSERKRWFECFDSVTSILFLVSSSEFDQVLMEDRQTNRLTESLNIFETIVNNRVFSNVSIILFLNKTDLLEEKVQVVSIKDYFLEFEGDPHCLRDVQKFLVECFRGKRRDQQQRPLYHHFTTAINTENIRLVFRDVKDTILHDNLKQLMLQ


Columns and labels:
[1] = biological target: T1, N-terminally truncated Gα13(Q226L), …; assay: crystal structure
Gα13 = biological target: T2, Gα13; assay: ITC

Row | Binder | binding result [1] | Kd (Gα13)
1 | rgRGS domain of PDZRhoGEF/GTRAP48 (residues 307–508) (domain or fragment, rat, UniProt Q9ES67 307-508, looked up) LIIGPEEDYDPGYFNNESDIIFQDLEKLKSHPAYLVVFLRYILSQADPGPLLFYLCSEVYQQTNPKDSRSLGKDIWNIFLEKNAPLRVKIPEMLQAEIDLRLRNNEDPRNVLCEAQEAVMLEIQEQINDYRSKRTLGLGSLYGENDLLGLDGDPLRERQMAEKQLAALGDILSKYEEDRSAPMDFAVNTFMSHAGIRLRESR | binds | –
2 | PDZRhoGEF rgRGS (protein, GDP·AlF-bound Gα13) ESDIIFQDLEKLKSRPAHLGVFLRYIFSQADPSPLLFYLCAEVYQQASPKDSRSLGKDIWNIFLEKNAPLRVKIPEMLQAEIDSRLRNSEDARGVLCEAQEAAMPEIQEQIHDYRTKRTLGLGSLYGENDLLDLDGDPLRERQVAEKQLAALGDILSKYEEDRSAPMDFALNTYMSHAGIR | – | ~500 nM
3 | PDZRhoGEF rgRGS (protein, GTPγS-bound Gα13) ESDIIFQDLEKLKSRPAHLGVFLRYIFSQADPSPLLFYLCAEVYQQASPKDSRSLGKDIWNIFLEKNAPLRVKIPEMLQAEIDSRLRNSEDARGVLCEAQEAAMPEIQEQIHDYRTKRTLGLGSLYGENDLLDLDGDPLRERQVAEKQLAALGDILSKYEEDRSAPMDFALNTYMSHAGIR | – | ~300 nM
